Non-standard residues stand in square brackets, D forms with d. No end group written: not given here. Pmb = 4-(di-t-butylphosphonomethyl)-3-methylbutyric acid, phosphonate replacement of phospho-Thr; pT = C[C@@H](OP(=O)(O)O)[C@H](N)C(=O)O; pS = N[C@@H](COP(=O)(O)O)C(=O)O
Assays:
[1] = molecular target: T1, 14-3-3ε protein (purified, as used in DSF and in the SPR of the Pmb peptide) (UniProt P62258 1-255); assay: differential scanning fluorimetry (DSF), SYPRO-Orange, 2 µM protein and 30 µM peptide
T1 sequence (looked up): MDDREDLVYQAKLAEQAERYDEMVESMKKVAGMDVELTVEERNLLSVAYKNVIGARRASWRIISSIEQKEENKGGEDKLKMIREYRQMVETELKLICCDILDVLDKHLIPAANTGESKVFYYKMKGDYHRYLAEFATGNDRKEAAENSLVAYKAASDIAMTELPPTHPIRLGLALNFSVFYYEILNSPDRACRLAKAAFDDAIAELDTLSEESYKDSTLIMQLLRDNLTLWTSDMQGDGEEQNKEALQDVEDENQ
Procedure: The binding of the modified pT peptide to 14-3-3ε was assessed using differential scanning fluorimetry (DSF) and surface plasmon resonance (SPR) measurements. The melting temperature (Tm) of 14-3-3ε-peptide complexes was determined by DSF using the BioRad CFX384 Touch realtime PCR. The protein unfolding was detected with a fluorescent SYPRO-orange dye. The assay was performed in 20 mM Tris, 150 mM NaCl, and 1 mM DTT PH7.4 buffer in a […] with a total volume of 20 μL, containing 2 and 30 μM, final concentrations of protein and peptide, respectively, and 500× dilution of the SYPRO-Orange dye stock. The excitation filter for the dye was 450-490 nm, and the emission filter was 560-580 nm. The temperature was held at 25° C. for 5 min and then increased from 25 to 95° C. at a rate of 0.3° C./ min, and fluorescence was recorded over time. Tm values were determined by plotting the first derivative of the melting curve.

14-3-3ε-(His)12 protein = molecular target: T2, 14-3-3ε-(His)12 protein (UniProt P62258 1-255); assay: SPR, Biacore 8K, 14-3-3ε-(His)12 on NTA chip, peptide 1 nM-2000 nM, 25° C., mean±SD
T2 sequence: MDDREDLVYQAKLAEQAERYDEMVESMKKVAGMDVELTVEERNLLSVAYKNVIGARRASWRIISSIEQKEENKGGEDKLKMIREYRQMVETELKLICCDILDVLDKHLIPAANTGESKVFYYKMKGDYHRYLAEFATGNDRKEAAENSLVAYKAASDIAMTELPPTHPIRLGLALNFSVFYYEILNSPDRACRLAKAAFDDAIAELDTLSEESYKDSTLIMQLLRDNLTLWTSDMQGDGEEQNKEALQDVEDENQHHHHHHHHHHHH
Procedure: For the SPR measurements, binding affinities of the modified pT peptide for 14-3-3ε were measured by SPR using a Biacore 8K Surface plasmon resonance instrument. 100 nM 14-3-3ε-(His)12 protein in 20 mM Tris, 150 mM NaCl, 50 μM EDTA, 0.005% Tween 20, pH 7.4 buffer was immobilized to a NiCl2 activated NTA chip at a flow rate of 5 μL/min for 10 min and then washed with the running buffer for 20 min. Then peptide solutions at a concentration range of 1 nM-2000 nM were injected cycle-wise at the flow rate of 30 μL/min for 1 min, and dissociation time was set for 3 min. All SPR experiments were performed at 25° C. […] At least three replicates were done for each peptide at similar conditions, and binding affinities (KD) are presented as mean±SD.

[2] = molecular target: T3, 14-3-3ε (endogenous, in human SCC12B.2 squamous cell carcinoma cells) (human, UniProt P62258 1-255); assay: cell-based or functional assay
T3 sequence (looked up): T1 sequence (looked up)

[3] = molecular target: T1, 14-3-3ε protein (purified, as used in …); assay: SPR
[4] = molecular target: T1, 14-3-3ε protein (purified, as used in …); assay: differential scanning fluorimetry (DSF), 14-3-3ε alone against 14-3-3ε with peptide

B1: modified pT peptide, Ac-Arg-Thr-Lys-Ser-Arg-Thr(PO3^2-)-Trp-Ala-Tic-NH2 (peptide)
peptide: RTKSRTWAX
modifications: N-terminal acetyl; phospho-Thr at position 6; Tic residue at position 9; C-terminal amide
notes: Synthetic modification of peptide pT; also called peptide pT modified with a Tic residue
increase in melting temperature (ΔTm) of 14-3-3ε [1]: 4.43 ° C.
Kd (14-3-3ε-(His)12 protein): 0.0309 µM

WYWK-NH2 [targeting peptide ES1P2, Trp-Tyr-Trp-Lys-NH2]
IC50, dose response curve in SCC12B.2 cells (Neutral Red Cell Viability assay) [2]: 20.6 µM

Ac-RTKSR[pT]WAGEKSKR-NH2 [peptide pT, Ac-Arg-Thr-Lys-Ser-Arg-Thr(PO3^2-)-Trp-Ala-Gly-Glu-Lys-Ser-Lys-Arg-NH2]
IC50, dose response curve in SCC12B.2 cells (Neutral Red Cell Viability assay) [2]: 22.6 µM

B2: first targeting peptide with a Pmb residue, Ac-Arg-Thr-Lys-Ser-Arg-Pmb-Trp-Ala-Gly-NH2 (peptide)
peptide: Ac-RTKSR[Pmb]WAG-NH2
notes: Synthetic analog of the pT peptide (CDC25A Thr507 site) in which the phospho-Thr is replaced by Pmb; also called phosphono-peptide
Kd [3]: 0.009 µM
increase in melting temperature (ΔTm) of 14-3-3ε [4]: 3.6 ° C.

B3: peptide pS, Ac-Thr-Gln-Arg-Gln-Asn-Ser-(PO3^2-)-Ala-Pro-Arg-Met-Leu-Ser-Ser-Asn-NH2 (peptide)
peptide: Ac-TQRQN[pS]APRMLSSN-NH2
SMILES: CSCC[C@H](NC(=O)[C@H](CCCNC(=N)N)NC(=O)[C@@H]1CCCN1C(=O)[C@H](C)NC(=O)[C@H](COP(=O)(O)O)NC(=O)[C@H](CC(N)=O)NC(=O)[C@H](CCC(N)=O)NC(=O)[C@H](CCCNC(=N)N)NC(=O)[C@H](CCC(N)=O)NC(=O)[C@@H](NC(C)=O)[C@@H](C)O)C(=O)N[C@@H](CC(C)C)C(=O)N[C@@H](CO)C(=O)N[C@@H](CO)C(=O)N[C@@H](CC(N)=O)C(N)=O
IC50, dose response curve in SCC12B.2 cells (Neutral Red Cell Viability assay) [2]: 29 µM
